This is an account of results in PMC1277818, “Substrate specificity analysis of protein kinase complex Dbf2-Mob1 by peptide library and proteome array screening” (BMC Biochemistry, 2005).

T1: FHHDbf2-H6Mob1TM9 (Saccharomyces cerevisiae, UniProt P22204+P40484)
T1 construct: made in house; host or cells: Hi5 insect cells (baculovirus)
T1 sequence (P22204 1-572): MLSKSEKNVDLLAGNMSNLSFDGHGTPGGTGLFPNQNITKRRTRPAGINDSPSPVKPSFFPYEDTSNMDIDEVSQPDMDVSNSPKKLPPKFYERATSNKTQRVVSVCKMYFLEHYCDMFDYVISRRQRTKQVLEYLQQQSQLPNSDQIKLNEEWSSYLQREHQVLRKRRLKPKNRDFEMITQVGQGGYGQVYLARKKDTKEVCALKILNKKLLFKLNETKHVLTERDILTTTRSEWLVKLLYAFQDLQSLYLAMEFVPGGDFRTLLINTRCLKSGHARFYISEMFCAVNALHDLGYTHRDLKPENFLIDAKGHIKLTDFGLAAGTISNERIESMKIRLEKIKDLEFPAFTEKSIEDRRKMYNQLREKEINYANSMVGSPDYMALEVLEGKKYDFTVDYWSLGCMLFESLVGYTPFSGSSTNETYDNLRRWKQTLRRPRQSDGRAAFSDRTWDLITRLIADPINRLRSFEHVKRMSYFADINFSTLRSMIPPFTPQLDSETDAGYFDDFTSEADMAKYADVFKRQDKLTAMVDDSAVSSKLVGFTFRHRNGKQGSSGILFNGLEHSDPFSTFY
T1 sequence (P40484 1-314 partner): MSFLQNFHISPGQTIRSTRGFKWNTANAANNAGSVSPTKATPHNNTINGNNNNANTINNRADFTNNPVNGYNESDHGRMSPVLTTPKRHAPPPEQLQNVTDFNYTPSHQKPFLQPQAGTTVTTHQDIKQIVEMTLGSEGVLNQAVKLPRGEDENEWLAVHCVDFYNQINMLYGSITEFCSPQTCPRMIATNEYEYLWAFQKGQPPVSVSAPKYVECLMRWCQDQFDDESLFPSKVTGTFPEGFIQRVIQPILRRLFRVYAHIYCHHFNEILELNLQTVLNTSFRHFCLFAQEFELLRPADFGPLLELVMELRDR

B1: YLR303W: GST fusion yeast protein on proteome chip (protein, UniProt P06106 2-444, looked up)
Homocysteine/cysteine synthase: PSHFDTVQLHAGQENPGDNAHRSRAVPIYATTSYVFENSKHGSQLFGLEVPGYVYSRFQNPTSNVLEERIAALEGGAAALAVSSGQAAQTLAIQGLAHTGDNIVSTSYLYGGTYNQFKISFKRFGIEARFVEGDNPEEFEKVFDERTKAVYLETIGNPKYNVPDFEKIVAIAHKHGIPVVVDNTFGAGGYFCQPIKYGADIVTHSATKWIGGHGTTIGGIIVDSGKFPWKDYPEKFPQFSQPAEGYHGTIYNEAYGNLAYIVHVRTELLRDLGPLMNPFASFLLLQGVETLSLRAERHGENALKLAKWLEQSPYVSWVSYPGLASHSHHENAKKYLSNGFGGVLSFGVKDLPNADKETDPFKLSGAQVVDNLKLASNLANVGDAKTLVIAPYFTTHKQLNDKEKLASGVTKDLIRVSVGIEFIDDIIADFQQSFETVFAGQKP
modifications: GST tag
notes: GST fusion yeast protein on proteome chip
B2: YBL024W: GST fusion yeast protein on proteome chip (protein, UniProt P38205 1-684, looked up)
Multisite-specific …: MARRKNFKKGNKKTFGARDDSRAQKNWSELVKENEKWEKYYKTLALFPEDQWEEFKKTCQAPLPLTFRITGSRKHAGEVLNLFKERHLPNLTNVEFEGEKIKAPVELPWYPDHLAWQLDVPKTVIRKNEQFAKTQRFLVVENAVGNISRQEAVSMIPPIVLEVKPHHTVLDMCAAPGSKTAQLIEALHKDTDEPSGFVVANDADARRSHMLVHQLKRLNSANLMVVNHDAQFFPRIRLHGNSNNKNDVLKFDRILCDVPCSGDGTMRKNVNVWKDWNTQAGLGLHAVQLNILNRGLHLLKNNGRLVYSTCSLNPIENEAVVAEALRKWGDKIRLVNCDDKLPGLIRSKGVSKWPVYDRNLTEKTKGDEGTLDSFFSPSEEEASKFNLQNCMRVYPHQQNTGGFFITVFEKVEDSTEAATEKLSSETPALESEGPQTKKIKVEEVQKKERLPRDANEEPFVFVDPQHEALKVCWDFYGIDNIFDRNTCLVRNATGEPTRVVYTVCPALKDVIQANDDRLKIIYSGVKLFVSQRSDIECSWRIQSESLPIMKHHMKSNRIVEANLEMLKHLLIESFPNFDDIRSKNIDNDFVEKMTKLSSGCAFIDVSRNDPAKENLFLPVWKGNKCINLMVCKEDTHELLYRIFGIDANAKATPSAEEKEKEKETTESPAETTTGTSTEAPSAAN
modifications: GST tag
notes: as for B1
B3: YLL008W: GST fusion yeast protein on proteome chip (protein, UniProt P32892 1-752, looked up)
ATP-dependent RNA helicase …: MVVGTKKYSNLDFVPTISDSEDDVPILDSSDDEKVEAKKTTKKRKGKNNKKKVSEGDNLDEDVHEDLDAGFKFDLDADDTTSNFQGWNFLAEGESNKDDAEAFVKKDVDLDKIIRRKGGLVKMAHIDSKQEEETEKEKVEKENDSDDEELAMDGFGMGAPMNNGDENQSEEEEEEEEKEEEEEEEEEQEEMTLEKGGKDDEIDEEDDSEEAKADFYAPETEGDEAKKQMYENFNSLSLSRPVLKGLASLGYVKPSPIQSATIPIALLGKDIIAGAVTGSGKTAAFMIPIIERLLYKPAKIASTRVIVLLPTRELAIQVADVGKQIARFVSGITFGLAVGGLNLRQQEQMLKSRPDIVIATPGRFIDHIRNSASFNVDSVEILVMDEADRMLEEGFQDELNEIMGLLPSNRQNLLFSATMNSKIKSLVSLSLKKPVRIMIDPPKKAATKLTQEFVRIRKRDHLKPALLFNLIRKLDPTGQKRIVVFVARKETAHRLRIIMGLLGMSVGELHGSLTQEQRLDSVNKFKNLEVPVLICTDLASRGLDIPKIEVVINYDMPKSYEIYLHRVGRTARAGREGRSVTFVGESSQDRSIVRAAIKSVEENKSLTQGKALGRNVDWVQIEETNKLVESMNDTIEDILVEEKEEKEILRAEMQLRKGENMLKHKKEIQARPRRTWFQSESDKKNSKVLGALSRNKKVTNSKKRKREEAKADGNGARSYRKTKTDRIADQERTFKKQKSTNSNKKKGFKSRR
modifications: GST tag
notes: as for B1
B4: YFR033C: GST fusion yeast protein on proteome chip (protein, UniProt P00127 1-147, looked up)
Cytochrome b-c1 complex …: MGMLELVGEYWEQLKITVVPVVAAAEDDDNEQHEEKAAEGEEKEEENGDEDEDEDEDEDDDDDDDEDEEEEEEVTDQLEDLREHFKNTEEGKALVHHYEECAERVKIQQQQPGYADLEHKEDCVEEFFHLQHYLDTATAPRLFDKLK
modifications: GST fusion
notes: as for B1
B5: YLR007W: GST fusion yeast protein on proteome chip (protein, UniProt Q07913 1-336, looked up)
Non-structural maintenance of …: MEVHEEQVSAPVTGDATAKYLLQYILSARGICHENALILALMRLETDASTLNTEWSIQQWVDKLNDYINAINVKLNLLGYKIIRINHGIGRNAVTLKAKQNFESFEDNTAIRAHNNDYAVLQSIVLPESNRFFVYVNLASTEETKLATRFNQNEIEFMKWAIEQFMISGETIVEGPALETSIIVKEVNRILVAATGDSNLAKWRKFSTFTVGSTNLFQFQELTATDIEDLLLRLCELKWFYRTQEGKFGIDLRCIAELEEYLTSMYNLNTCQNCHKLAIQGVRCGNESCREENEETGENSLSQIWHVDCFKHYITHVSKNCDRCGSSLITEGVYVI
modifications: GST tag
notes: as for B1
B6: YAL051W: GST fusion yeast protein on proteome chip (protein, UniProt P39720 1-1047, looked up)
Oleate-activated …: MVENSTQKAPHAGNDDNSSTKPYSEAFFLGFNNPTPGLEAEHSSTSPAPENSETHNRKRNRILFVCQACRKSKTKCDREKPECGRCVKHGLKCVYDVSKQPAPRIPSKDAIISRLEKDMFYWKDKAMKLLTEREVNESGKRSASPINTNNASGDSPDTKKQHKMEPIYEQSGNGDINNGTRNDIEINLYRSHPTMIMSKVMKREVKPLSENYIIIQDCFLKILVTSVFLDTSKNTMIPALTANANITRAQPSVANNLLKLKEMLIRQCQTEDEKNRVNEFTDRILQNTNSNRNLKIGMLLSMLYNSVGYQYLEDHCPQGGEYSDLLRNLINECEAILPSYEIIERYKNHFYEYVYPSLPFIELEIFEESLSQTIFPDPNNPSKVQIRMGSTHLRAKVENLSLLLVILKLSYMSIRFLDHSTADSSFYLSKEIIDKYPIPNDFILLSQRCLASENWCACANENIISCLLYIWSFFAFSPEEGDFFLEHPTDVISSLIMMLSTSIGLHRDPSDFPQLISPSTSDKRTLNHRRILWLSIVTVCSFEASLKGRHSVSPISLMALFLNIKDPDSLTVYMNRVRGDLSDINNHKLLRIHKFTFKRAQLALLLSDLDNLTMTYYGSFHLHSIEFIREKIEIFVEENFPIVPLKSVAQDKSDLDDMNVISEMNILSSENSSSFHNRIMNKLLMLRTSMAVFLHFETLITKDKSIFPFYKKYFMVSCMDALSLINYFNKFFNGEYRHAISSLTSFNVTKFIQLALSSTIFSLLGIILRIGLAIHMLSSEVQKLSGTTDPRIKELNTKVEKFSTLQRDLESALEGIYCSASEHLRFTYFPVFKMLALFDVIVQRMRKGELWHGIFTMIQMEQMHSRIIKTLSITLGVKLDKKDRLLEELMACNHVANFSVEDIDELNRNIKKEIQISSGLKPPVNTIDLTNGEPFGNAVPTFTKTWSSSLDNLEKLSSAAAVGQSLDYNSGLRQGPLAGGGSKEQTPIAGMNNLNNSINATPIVDNSSGSQLPNGFDRGQANNTPFPGYFGGLDLFDYDFLFGNDFA
modifications: GST tag
notes: as for B1

The target in the first assay is T1, FHHDbf2-H6Mob1TM9. In words: Yeast proteome chip assay. Type of assay: biochemical. To be noted: Table 3; GST fusion proteins on proteome chip, [γ-33P]ATP, chips in duplicate, computer analysis. In outline:
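GST-tagged yeast proteins (~4,400 strains) spotted on proteome microarrays, probed in duplicate with FHHDbf2-H6Mob1TM9 in DKB plus [γ-33P]ATP; kinase-dead Dbf2(N305A) and kinase-free buffer served as controls. Positives: 3 of 4 spots ≥2 SD above background, fourth ≥1.5 SD.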
With B1, the “Slide Signal (after normalization)” value is listed as 0.0985. With B2, the “Slide Signal (after normalization)” value came to 0.1294.

For B3, the “Slide Signal (after normalization)” value is reported as 0.0702. With B4, the “Slide Signal (after normalization)” value is 0.042. For B5, the “Slide Signal (after normalization)” value is recorded as 0.0988.

Staying with this assay, now noted: Table 4, the 25 proteins with highest signal relative to protein amount; [γ-33P]ATP, chips in duplicate.
For B6, the “Slide Signal (after normalization)” value came out at 81.8589.
